This test has as its target HLA-DR DRB1 *1101 (human). The experiment in a line: radioligand binding.

Broadly, the IC50 is the concentration that gives 50% inhibition. Substance HER-2/neu.59 (peptide) yielded an IC50 of 0.03 µM. That is a double-digit nanomolar value.

Source of the values: publication PMC2818599.
